Where a chain is given by its changes, count along the chain named. Numbers in names are those of the source.
Tests used:
[1] = biological target: KEAP1 (wild-type full-length), His-tagged (human) (UniProt Q14145); test: AlphaScreen; 1228.8 nM FLAG-NRF2, 150 nM His-KEAP1; Rep 2; control for I28V
[2] = biological target: KEAP1 (wild-type full-length), His-tagged (human) (UniProt Q14145); test: AlphaScreen; 38.4 nM FLAG-NRF2, 150 nM His-KEAP1 (same value as in Table 26)
[3] = biological target: KEAP1 (wild-type full-length), His-tagged (human) (UniProt Q14145); test: AlphaScreen; 4.8 nM FLAG-NRF2, 150 nM His-KEAP1; Rep 3; control for I86V
[4] = biological target: KEAP1 (wild-type full-length), His-tagged (human) (UniProt Q14145); test: AlphaScreen; 2.4 nM FLAG-NRF2, 150 nM His-KEAP1; Rep 2; control for I28V
[5] = biological target: KEAP1 (wild-type full-length), His-tagged (human) (UniProt Q14145); test: AlphaScreen; 9.6 nM FLAG-NRF2, 150 nM His-KEAP1; Repeat 1 (same value as in Table 26)
[6] = biological target: KEAP1 (wild-type full-length), His-tagged (human) (UniProt Q14145); test: AlphaScreen; FLAG-NRF2 wt isoform 1 19.2 nM, His-KEAP1 150 nM; Repeat 1; positive control for Q75R
[7] = biological target: KEAP1 (wild-type full-length), His-tagged (human) (UniProt Q14145); test: AlphaScreen; 1228.8 nM FLAG-NRF2, 150 nM His-KEAP1; Rep 1; control for I28V
[8] = biological target: KEAP1 (wild-type full-length), His-tagged (human) (UniProt Q14145); test: AlphaScreen, all variants on one plate; upper condition (38.4 nM NRF2), KEAP1 150 nM; the reference itself
[9] = biological target: KEAP1 (wild-type full-length), His-tagged (human) (UniProt Q14145); test: AlphaScreen; NRF2 wt isoform 1 9.6 nM, KEAP1 150 nM; signal against NRF2-only control; control for Q75R
[10] = biological target: KEAP1 (wild-type full-length), His-tagged (human) (UniProt Q14145); test: AlphaScreen; FLAG-NRF2 wt isoform 1 19.2 nM, His-KEAP1 150 nM; Rep 2; positive control for Q75R
[11] = biological target: KEAP1 (wild-type full-length), His-tagged (human) (UniProt Q14145); test: AlphaScreen; NRF2 wt isoform 1 9.6 nM, KEAP1 150 nM; set as the 100 % reference for Q75R
[12] = biological target: KEAP1 (wild-type full-length), His-tagged (human) (UniProt Q14145); test: AlphaScreen; 38.4 nM FLAG-NRF2, 150 nM His-KEAP1; Rep 3; control for I86V
[13] = biological target: KEAP1 (wild-type full-length), His-tagged (human) (UniProt Q14145); test: AlphaScreen; 76.8 nM FLAG-NRF2, 150 nM His-KEAP1; Rep 3; control for I86V
[14] = biological target: KEAP1 (wild-type full-length), His-tagged (human) (UniProt Q14145); test: AlphaScreen; NRF2 Q75R 1228.8 nM, KEAP1 150 nM; signal against NRF2-only control
[15] = biological target: KEAP1 (wild-type full-length), His-tagged (human) (UniProt Q14145); test: AlphaScreen; NRF2 Q75R 19.2 nM, KEAP1 150 nM; relative to wild-type NRF2 isoform 1 (100 %)
[16] = biological target: KEAP1 (wild-type full-length), His-tagged (human) (UniProt Q14145); test: AlphaScreen; FLAG-NRF2 Q75R 1228.8 nM, His-KEAP1 150 nM; Rep 1
[17] = biological target: KEAP1 (wild-type full-length), His-tagged (human) (UniProt Q14145); test: AlphaScreen; FLAG-NRF2 Q75R 307.2 nM, His-KEAP1 150 nM; Rep 2
[18] = biological target: KEAP1 (wild-type full-length), His-tagged (human) (UniProt Q14145); test: AlphaScreen; 9.6 nM FLAG-NRF2, 150 nM His-KEAP1; Rep 2
[19] = biological target: KEAP1 (wild-type full-length), His-tagged (human) (UniProt Q14145); test: AlphaScreen; 9.6 nM FLAG-NRF2, 150 nM His-KEAP1; signal against NRF2 only
[20] = biological target: KEAP1 (wild-type full-length), His-tagged (human) (UniProt Q14145); test: AlphaScreen; 614.4 nM FLAG-NRF2, 150 nM His-KEAP1; Rep 1
[21] = biological target: KEAP1 (wild-type full-length), His-tagged (human) (UniProt Q14145); test: AlphaScreen; 9.6 nM FLAG-NRF2, 150 nM His-KEAP1; Repeat 2 (same value as in Table 27)
[22] = biological target: KEAP1 (wild-type full-length), His-tagged (human) (UniProt Q14145); test: AlphaScreen; 614.4 nM FLAG-NRF2, 150 nM His-KEAP1; signal against NRF2 only
[23] = biological target: KEAP1 (wild-type full-length), His-tagged (human) (UniProt Q14145); test: AlphaScreen; 19.2 nM FLAG-NRF2, 150 nM His-KEAP1; against wild-type NRF2 isoform 1 = 100%
[24] = biological target: KEAP1 (wild-type full-length), His-tagged (human) (UniProt Q14145); test: AlphaScreen; 4.8 nM FLAG-NRF2, 150 nM His-KEAP1; Rep 1
[25] = biological target: KEAP1 (wild-type full-length), His-tagged (human) (UniProt Q14145); test: AlphaScreen; FLAG-NRF2 I86V 2.4 nM, His-KEAP1 150 nM; Rep 2
[26] = biological target: KEAP1 (wild-type full-length), His-tagged (human) (UniProt Q14145); test: AlphaScreen; NRF2 I86V 614.4 nM, KEAP1 150 nM; signal against NRF2-only control
[27] = biological target: KEAP1 (wild-type full-length), His-tagged (human) (UniProt Q14145); test: AlphaScreen; FLAG-NRF2 I86V 19.2 nM, His-KEAP1 150 nM; Rep 3

KEAP1 (wild-type full-length), His-tagged (human), sequence (Q14145 2-624 limits assumed): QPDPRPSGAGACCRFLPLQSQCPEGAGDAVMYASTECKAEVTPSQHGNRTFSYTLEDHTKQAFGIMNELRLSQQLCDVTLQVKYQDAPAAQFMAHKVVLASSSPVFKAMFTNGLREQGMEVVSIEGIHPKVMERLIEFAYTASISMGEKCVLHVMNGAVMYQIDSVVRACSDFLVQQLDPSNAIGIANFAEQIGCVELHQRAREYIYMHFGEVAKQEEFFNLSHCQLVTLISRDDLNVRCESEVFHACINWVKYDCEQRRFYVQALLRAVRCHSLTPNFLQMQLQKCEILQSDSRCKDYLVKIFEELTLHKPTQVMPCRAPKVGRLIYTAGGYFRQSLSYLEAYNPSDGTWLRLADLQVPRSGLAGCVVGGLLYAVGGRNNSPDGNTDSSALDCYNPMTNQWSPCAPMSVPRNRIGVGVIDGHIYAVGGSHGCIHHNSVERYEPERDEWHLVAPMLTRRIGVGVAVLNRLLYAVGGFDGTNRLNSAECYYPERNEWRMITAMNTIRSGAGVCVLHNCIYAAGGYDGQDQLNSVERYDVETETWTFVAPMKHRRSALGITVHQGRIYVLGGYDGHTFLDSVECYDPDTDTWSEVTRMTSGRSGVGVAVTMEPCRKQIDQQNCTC

B1: NRF2 isoform 1 (wild-type full-length), FLAG-tagged (protein)
chain: MMDLELPPPGLPSQQDMDLIDILWRQDIDLGVSREVFDFSQRRKEYELEKQKKLEKERQEQLQKEQEKAFFAQLQLDEETGEFLPIQPAQHIQSETSGSANYSQVAHIPKSDALYFDDCMQLLAQTFPFVDDNEVSSATFQSLVPDIPGHIESPVFIATNQAQSPETSVAQVAPVDLDGMQQDIEQVWEELLSIPELQCLNIENDKLVETTMVPSPEAKLTEVDNYHFYSSIPSMEKEVGNCSPHFLNAFEDSFSSILSTEDPNQLTVNSLNSDATVNTDFGDEFYSAFIAEPSISNSMPSPATLSHSLSELLNGPIDVSDLSLCKAFNQNHPESTAEFNDSDSGISLNTSPSVASPEHSVESSSYGDTLLGLSDSEVEELDSAPGSVKQNGPKTPVHSSGDMVQPLSPSQGQSTHVHDAQCENTPEKELPVSPGHRKTPFTKDKHSSRLEAHLTRDELRAKALHIPFPVEKIINLPVVDFNEMMSKEQFNEAQLALIRDIRRRGKNKVAAQNCRKRKLENIVELEQDLDHLKDEKEKLLKEKGENDKSLHLLKKQLSTLYLEVFSMLRDEDGKPYSPSEYSLQQTRDGNVFLVPKSKKPDVKKN
Binder B1 has an A-counts [1] of 1520 A-counts, a S/N [2] of 3.6 and an A-counts [3] of 1860 A-counts. It also gave an A-counts [4] of 628 A-counts, an A-counts [5] of 1590 A-counts and an A-counts (NRF2 plus KEAP1) [6] of 1360 A-counts. For the same binder, the A-counts [7] was 1450 A-counts, the % Disruption in Binding [8] was 0% and the S/N [9] was 3. It also gave an A-counts (NRF2 plus KEAP1) [10] of 1480 A-counts, a Binding Percentage [11] of 100% and an A-counts [12] of 3130 A-counts. For the same binder, the A-counts [13] was 2880 A-counts.

B2: NRF2 isoform 1 (Q75R full-length), FLAG-tagged (protein)
chain: B1 chain with Q75R
Binder B2 has a S/N [14] of 0.9, a Binding Percentage [15] of 63.7% and an A-counts (NRF2 plus KEAP1) [16] of 705 A-counts. The A-counts (NRF2 plus KEAP1) [17] was 1020 A-counts.

B3: NRF2 isoform 1 (I28V full-length), FLAG-tagged (protein)
chain: B1 chain with I28V
B3 showed an A-counts [18] of 1560 A-counts, a S/N [19] of 3.4 and an A-counts [20] of 1220 A-counts. It also gave an A-counts [21] of 1560 A-counts, a S/N [22] of 1 and a Binding Percentage (%) [23] of 68.3%. For the same binder, the A-counts [24] was 1120 A-counts.

B4: NRF2 isoform 1 (I86V full-length), FLAG-tagged (protein)
chain: B1 chain with I86V
Work on B4 yielded an A-counts (NRF2 plus KEAP1) [25] of 1610 A-counts, a S/N [26] of 1.1 and an A-counts (NRF2 plus KEAP1) [27] of 2970 A-counts.

Source: patent US20250352667A1
